{"source": "patent US20160208003A1", "about": "(AFFITECH RESEARCH, published 2016)", "key": {"[1]": {"biological_target": "T1, human CC chemokine receptor 4 (CCR4) (human, UniProt P51679 1-360)", "T1 construct": "whole, on cells; Always presented on cells; also called CD194; human CCR4", "T1 sequence (looked up)": "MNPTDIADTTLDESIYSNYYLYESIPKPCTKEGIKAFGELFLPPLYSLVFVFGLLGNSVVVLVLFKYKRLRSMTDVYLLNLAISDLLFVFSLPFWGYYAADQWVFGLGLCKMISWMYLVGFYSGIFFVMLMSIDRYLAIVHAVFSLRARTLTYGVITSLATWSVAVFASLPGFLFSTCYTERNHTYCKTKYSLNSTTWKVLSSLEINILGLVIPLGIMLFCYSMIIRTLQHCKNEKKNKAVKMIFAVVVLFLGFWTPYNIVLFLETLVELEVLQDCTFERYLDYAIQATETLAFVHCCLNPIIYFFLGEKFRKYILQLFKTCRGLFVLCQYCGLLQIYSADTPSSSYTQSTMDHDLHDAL", "assay": "calculated from the IC50; CCRF-CEM cells, competitor biotinylated MDC", "description": "(§1) The competition binding assays were performed with biotinylated MDC or biotinylated TARC on DT-40-CCR4+ and CCRF-CEM cells. DT40 and CCRF-CEM cells were cultured as described in Example 2. TARC and MDC were biotinylated using standard procedures. The biotinylation process causes some losses, so the concentrations of biotinylated MDC and TARC recited herein are approximate.\n(§2) The cells were harvested from culture flasks, washed 2 times with PBS (400×g, 5 min, 4° C.) and resuspended in PBS containing 0.2% BSA and 0.09% NaN3. 1×10^5 cells per well were aliquoted into V-shaped 96-well plates (Greiner Bio-One, Frikenhausen, Germany). Cells were centrifuged (400×g, 5 min, 4° C.) and resuspended in 50 μl IgG, single chain or unlabeled ligand (1:10 dilution series starting on 100/500/26, 4 μg/ml) mixed with a fixed concentration of biotinylated ligand (10 or 20 nM, see legend to FIG. 24). The cells were incubated for 2 hours at 4° C. and mixed with a pipette every 45 min. The cells were washed three times with 150 μl PBS with 0.2% BSA and 0.09% NaN3 and stained with 3 μg/ml streptavidin PE (BD Biosciences) for 45 minutes at 4° C. […] Apparent binding affinities (KD) were calculated according to the following equation derived from previously described methods (Kipriyanov et al, 1997b; Schodin & Kranz, 1993): […]"}, "[2]": {"biological_target": "T1, human CC chemokine receptor 4 (CCR4)", "assay": "calculated from the IC50; DT-40-CCR4+ cells, competitor biotinylated MDC", "description": "as §1, §2"}, "[3]": {"biological_target": "T1, human CC chemokine receptor 4 (CCR4)", "assay": "flow cytometry competition on DT-40-CCR4+ cells; unlabelled MDC titrated, competitor biotinylated MDC (ca. 10 nM)", "description": "as §1, §2"}, "[4]": {"biological_target": "T1, human CC chemokine receptor 4 (CCR4)", "assay": "competition flow cytometry on CCRF-CEM cells: unlabelled competitor against ca. 20 nM biotinylated TARC, without BSA, streptavidin-PE [c]", "description": "as §1, §2"}, "[5]": {"biological_target": "T1, human CC chemokine receptor 4 (CCR4)", "assay": "competition flow cytometry on CCRF-CEM cells: unlabelled competitor against ca. 20 nM biotinylated TARC, with 1 % BSA, streptavidin-PE [d]", "description": "as §1, §2"}, "[6]": {"biological_target": "T1, human CC chemokine receptor 4 (CCR4)", "assay": "competition flow cytometry on DT-40-CCR4+ cells: unlabelled competitor against ca. 20 nM biotinylated TARC, without BSA, streptavidin-PE [a]", "description": "as §1, §2"}, "[7]": {"biological_target": "T1, human CC chemokine receptor 4 (CCR4)", "assay": "competition flow cytometry on DT-40-CCR4+ cells: unlabelled competitor against ca. 20 nM biotinylated TARC, with 1 % BSA, streptavidin-PE [b]", "description": "as §1, §2"}, "[8]": {"biological_target": "T1, human CC chemokine receptor 4 (CCR4)", "assay": "competition flow cytometry: unlabelled competitor against a fixed amount of biotinylated MDC; cell line not named on the sheet or in the legend"}, "[9]": {"biological_target": "T1, human CC chemokine receptor 4 (CCR4)", "assay": "flow cytometry competition on CCRF-CEM cells; unlabelled TARC titrated, competitor biotinylated TARC (ca. 20 nM)", "description": "as §1, §2"}, "[10]": {"biological_target": "T1, human CC chemokine receptor 4 (CCR4)", "assay": "flow cytometry competition on DT-40-CCR4+ cells; unlabelled TARC titrated, competitor biotinylated TARC (ca. 20 nM)", "description": "as §1, §2"}, "[11]": {"biological_target": "T1, human CC chemokine receptor 4 (CCR4)", "assay": "competition flow cytometry: unlabelled competitor against a fixed amount of biotinylated TARC; cell line not named on the sheet or in the legend"}}, "note": "“And” between values parts separate entries of the source, which are not always exact repeats. Equal entries are not always repeated.", "data": [{"binder": "macrophage-derived chemokine (MDC) (ligand, UniProt O00626 25-93, looked up, also called CCL22; biotinylated MDC) GPYGANMEDSVCCRDYVRYRLPLRVVKHFYWTSDSCPRPGVVLLTFRDKEICADPRVPWVKMILNKLSQ", "values": [{"measurement": "Kd", "setting": "[1]", "result": 0.18, "unit": "nM"}, {"measurement": "Kd", "setting": "[2]", "result": 0.19, "unit": "nM"}, {"measurement": "IC50", "setting": "[3]", "result": 10.8, "unit": "nM"}, {"measurement": "IC50 (read off the curve)", "setting": "[4]", "result": "~60", "unit": "nM"}, {"measurement": "IC50 (read off the curve)", "setting": "[5]", "result": "~7", "unit": "nM"}, {"measurement": "IC50 (read off the curve)", "setting": "[6]", "result": "~30", "unit": "nM"}, {"measurement": "IC50 (read off the curve)", "setting": "[7]", "result": "~30", "unit": "nM"}, {"measurement": "IC50 (read off the curve)", "setting": "[8]", "result": "~20", "unit": "nM"}]}, {"binder": "thymus and activation regulated chemokine (TARC) (ligand, UniProt Q92583 24-94, looked up, also called CCL17; biotinylated TARC) ARGTNVGRECCLEYFKGAIPLRKLKTWYQTSEDCSRDAIVFVTVQGRAICSDPNNKRVKNAVKYLQSLERS", "values": [{"measurement": "IC50", "setting": "[9]", "result": "43.4 nM and 31.8 nM"}, {"measurement": "IC50", "setting": "[10]", "result": "40.9 nM and 34.6 nM"}, {"measurement": "IC50 (read off the curve)", "setting": "[11]", "result": "~0.3", "unit": "nM"}]}]}
